This is an account of results in patent US20080039402A1 (UNIVERSITE BORDEAUX 2, published 2008).

Positions of bridges follow the written chain, without caps; N, C: chain ends. Non-standard residues stand in square brackets, D forms with d. No end group written: not given here. βAla = NCCC(=O)O; Sar = CNCC(=O)O

To fix the notation:
B1: Compound 397 (scrambled) (peptide)
peptide: SPWNEHF
notes: Comment 'scrambled'; L-amino acids, reverse order of FHENWPS
B2: Compound 290 (peptide)
peptide: HCNWCS
notes: Cys at residues 2 and 5; no disulfide is stated for this compound
B3: Compound 398 (peptide)
peptide: cyclo(HENW[Sar]S)
SMILES: CN1CC(=O)N[C@@H](CO)C(=O)N[C@@H](Cc2c[nH]cn2)C(=O)N[C@@H](CCC(=O)O)C(=O)N[C@@H](CC(N)=O)C(=O)N[C@@H](Cc2c[nH]c3ccccc23)C1=O

In the first assay the target is T1, CD23 (FCεRII) on human CD23+ cells (human, UniProt P06734 1-321).
T1 sequence (looked up): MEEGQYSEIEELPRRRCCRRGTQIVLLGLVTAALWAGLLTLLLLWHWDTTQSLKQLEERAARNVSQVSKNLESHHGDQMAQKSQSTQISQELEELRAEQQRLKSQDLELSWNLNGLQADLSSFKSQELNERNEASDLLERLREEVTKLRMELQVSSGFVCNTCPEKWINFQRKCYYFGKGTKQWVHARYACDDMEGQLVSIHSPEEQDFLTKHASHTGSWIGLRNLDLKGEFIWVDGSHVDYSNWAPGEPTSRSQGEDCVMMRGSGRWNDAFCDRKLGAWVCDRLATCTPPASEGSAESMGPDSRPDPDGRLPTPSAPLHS
The assay is described as follows: cytofluorometry; CD23+ cells pre-incubated with peptide, then CD23-Ab; Experiment 2.
In turn, unrelated control peptide (pNu) showed a % of fluorescence intensity recovered, compared to cells incubated in medium alone of 88%.

The next assay deals with T1, CD23 (FCεRII) on human CD23+ cells. The assay can be described thus: cytofluorometry; CD23+ cells pre-incubated with peptide, then IgE/anti-IgE-FITC; Experiment 2.
unrelated control peptide (pNu) registered a % of fluorescence intensity recovered, compared to cells incubated in medium alone of 110%.

The target is the same in the next assay. The assay can be described thus: cytofluorometry; CD23+ cells pre-incubated with peptide, then CD23-Ab; Experiment 1.
unrelated control peptide (pNu) gave a % of fluorescence intensity recovered, compared to cells incubated in medium alone of 120%.

A further assay has the same target. The assay is described as follows: cytofluorometry; CD23+ cells pre-incubated with peptide, then CD23-Ab; Experiment 3.
Molecule unrelated control peptide (pNu) came in with a % of fluorescence intensity recovered, compared to cells incubated in medium alone of 94%.

The target is the same in the next assay. The assay is described as follows: cytofluorometry; CD23+ cells pre-incubated with peptide, then IgE/anti-IgE-FITC; Experiment 1.
Molecule unrelated control peptide (pNu) registered a % of fluorescence intensity recovered, compared to cells incubated in medium alone of 73%.

Another assay shares this target. The assay can be described thus: inhibition of anti-CD23-FITC mAb binding to CD23+ cells; Activity grade.
For HENWPSG (cyclic H2T (N-terminus amino group to C-terminus carboxyl group linkage)) [Compound 298], the binding result is listed as “binds”.
The same measure, in the same setting: the value for HPNWRS [Compound 281] was “binds”; that for HEPWRS [Compound 289] was “binds”.
Still for that read-out and setting: the result for HENWP-NH2 [Compound 249] reads “binds”.
Still for that read-out and setting: the value for F[βAla]ENWPS [Compound 339] was “binds”.
With HNEWPS [Compound 288], the binding result is “binds”.
Same read-out and setting: the value for FHENWAS [Compound 316] was “binds”.
Turning to FHANWPS [Compound 337], the binding result is on record as “binds”.
In the case of FAENWPS [Compound 338], the binding result is on record as “binds”.
In the case of FHENWPA [Compound 349], the binding result was “binds”.
The same measure, in the same setting: the result for B1 reads “binds”; that for FH[βAla]NWPS [Compound 340], “binds”.
Still for that read-out and setting: the result for HENWPS-NH2 [Compound 244] reads “binds”; that for Ac-HENWPS-NH2 [Compound 243], “binds”.
Still for that read-out and setting: the result for HQNWPS-NH2 [Compound 400] reads “binds”; that for RENWPS [Compound 384], “binds”; that for HEQWPS [Compound 364], “binds”.
As for B2, the binding result is on record as “binds”.

The target is the same in a further assay. The assay is described as follows: cell-based or functional assay.
For “Compound 410 (Ac N W BetaA CO2H) (peptide)”, the % Inhibition (nitrites; inhibition of iNOS production by activated CD23+ macrophages) stood at 61%.
Turning to unrelated control peptide (pNu), the TNF-α in supernatant of CD23+ cells, pNu + CD23-Ab, Experiment 1 came out at 162 pg TNF-α/ml; the TNF-α in supernatant of CD23+ cells, pNu + CD23-Ab, Experiment 2 is 132 pg TNF-α/ml; the [NO2-], macrophages from synovial fluid of Rheumatoid Arthritis patients, pNu + CD23-Ab, Experiment 1 is 15.2 µM; the [NO2-], macrophages from synovial fluid of Rheumatoid Arthritis patients, pNu + CD23-Ab, Experiment 2 came to 14.4 µM.
As for Compound 411 (Ac N W CO2H) (peptide), the % Inhibition (nitrites; inhibition of iNOS production by activated CD23+ macrophages) stood at 84%.
Same read-out and setting: the value for “Compound 489 (NH2 G[allyl-] N W G[allyl-]) (peptide)” was 62%; that for “Compound 490 (G[allyl-] N W G[allyl-] S) (peptide)” was 81%.
The same measure, in the same setting: the value for Compound 492 (Ac n w CO2H) (peptide) was 77%.
On the same count and under the same terms, the result for Compound 491 (Ac w n CO2H) (peptide) reads 94%; that for FHENWPS [FHENWPS peptide (p30A)], 74%.
Turning to FHENWPT [P30M (F H E N W P T)], the “% Inhibition (nitrites; inhibition of iNOS production by activated CD23+ macrophages)” value (“% Inhibition” below) was found to be 76%.
Regarding FHEQWPS [P30O (F H E Q W P S)], the “% Inhibition” value was 73%.
Still for that read-out and setting: the value for HENWS (cyclic H2T (N-terminus amino group to C-terminus carboxyl group linkage)) [Compound 437] was 56%; that for B3 was 74%; that for HENWPS [P30K (H E N W P S)] was 74%.
Still for that read-out and setting: the result for FHSQWPN [FHSQWPN (p30E)] reads 65%; that for FHENWP [P30L (F H E N W P)], 78%; that for FHEAWPS [Compound 331], 43%.
In the case of FHEFWPT [FHEFWPT (p30D)], the “% Inhibition” value stood at 68%.
Take FHKPWRA [P30G (F H K P W R A)]: the “% Inhibition” value is 55%.
Same read-out and setting: the result for FHENW[βAla]S [Compound 328] reads 26%; that for HENWES (lactam N-5) [Compound 327], 60%.
On the same count and under the same terms, the value for HENWKS [Compound 333] was 69%; that for HENAPS [Compound 436] was 60%.
Still for that read-out and setting: the value for HENWGS (cyclic H2T (N-terminus amino group to C-terminus carboxyl group linkage)) [Compound 299] was 74%.
